Data published in patent US20150267232A1, “IN VIVO AND IN VITRO CARBENE INSERTION AND NITRENE TRANSFER REACTIONS CATALYZED BY HEME ENZYMES” (California Institute of Technology, priority 2012, published 2015).

Key:
[1] = N—H insertion, aniline with ethyl diazo acetate (EDA); assay type: biochemical; conditions: protein 10 uM, EDA 8.5 mM, aniline 20 mM, Na2S2O4 10 mM, 12 h
Text: We have found a variety of P450 variants to be general catalysts for carbenoid N—H insertion. We combined aniline with EDA in the presence of a reductant (Na2S2O4) under argon atmosphere and tested the mixture with seven P450BM3 variants previously identified as competent catalysts for cyclopropanation (Coelho, P. et al., Science. 2013, 339, 307-310). In choosing this set of P450s, we hypothesized that cyclopropanation activity could correlate with ability to generate the iron-carbenoid intermediate that is also necessary for N—H insertion. Whereas wild type BM3 (WT-BM3 (SEQ ID NO:1), Table 20, entry 1) provided only trace amounts of the desired product (4.3), a few variants gave 4.3 in good yields after 12 h at room temperature. In particular, variant H2-5-F10 which is derived from a thermostable P450BM3 lineage (Lewis, J. C. et al. ChemBioChem, 2010, 11, 2502-2505) and contains 15 mutation from WT-BM3 (SEQ ID NO:1), formed 4.3 in 47% yield and 473 turnovers (TTN) using 0.1% protein relative to EDA (entry 7). […] In contrast, when 1 mol % of the isolated hemin prosthetic group was used as catalyst, the single and double insertion products were produced in a 3.5 to 1 ratio (with a total product yield of 51%).
A representative procedure for P450-catalyzed N—H insertion is as follows. To an unsealed crimp vial, 60 μL of a P450 solution (67 or 133 μM) was added and the vial was sealed. A 12.5 mM solution of sodium dithionite in phosphate buffer (0.1 M, pH=8.0) was degassed by bubbling with argon in a 6 mL crimp-sealed vial. The headspace of the 2 mL vials containing P450 solution were flushed with argon (no bubbling). The buffer/dithionite solution (360 μL) was then added to each reaction vial via syringe, and the gas lines were disconnected from the vials. 10 μL of an 800 mM stock of aniline was added via a glass syringe, followed by 10 μL of a 340 mM stock of EDA (both stocks in MeOH). The reaction vials were then placed in a tray on a plate shaker and left to shake at 40 rpm. The final concentrations of the reagents were typically: 20 mM aniline, 8.5 mM EDA, 10 mM Na2S2O4, and 10 or 20 μM P450. After 12 h at 25° C., the vials were removed from the shaker and uncapped and 1 mL of cyclohexane was added, followed by 20 μL of a 20 mM solution of phenethyl alcohol (internal standard). The mixture was transferred to a 1.5 mL Eppendorf tube and vortexed and centrifuged (13,000×g, 1 min.). The organic layer was dried over sodium sulfate if necessary then analyzed by GC, with comparison to an authentically prepared sample that has been verified by proton NMR ([…], Varian, CDCl3).
Substitution is well-tolerated on the aniline partner on both the ortho and para positions. Reactions were analyzed by a Shimadzu GC with FID detector and J&W HP-5 column (30 m×0.32 mm, 0.25 μm film) and calibrated to an independently prepared sample of each product using phenethyl alcohol as internal standard. Reaction of aniline and EDA was also performed in milligram scale without any organic cosolvent to provide 4.3 in 65% isolated yield.
Calibration curves were plotted as follows. Yields of N—H insertion products were determined using calibration curves made with independently synthesized standards that have been verified by proton NMR, with comparison to known literature data (Baumann, L. K. et al. Organometallics. 2007, 26, 3995-4002; Anding, B. J. et al. Organometallics. 2013, 32, 2599-2607). Two stock solutions of product were made at 160 mM and 40 mM. To four or five samples containing 380 μL of buffer, product was added from either of the stock solutions such at a final concentration of 0.5-8.0 mM in 400 μL was obtained. 20 μL of internal standard was added to each eppendorf tube, then 1 mL of cyclohexane was added and the tubes were vortexed and centrifuged (13,000 ×g, 30 seconds). The organic layer was then analyzed by GC. The ratio of the areas under the internal standard and product peaks were plotted against the concentration for each solution. […]

[2] = P450BM3 compilation plate screen (GC, cyclopropane peaks); assay type: biochemical; conditions: P450BM3 variants

B1: H2A10: 9-10A TS + F87V, L75A, L181A, T268A (protein, listed as Bacillus megaterium)
chain: TIKEMPQPKTFGELKNLPLLNTDKPVQALMKIADELGEIFKFEAPGRVTRYLSSQRLIKEACDESRFDKNLSQAAKFARDFAGDGLVTSWTHEKNWKKAHNILLPSFSQQAMKGYHAMMVDIAVQLVQKWERLNADEHIEVSEDMTRLTLDTIGLCGFNYRFNSFYRDQPHPFIISMVRAADEVMNKLQRANPDDPAYDENKRQFQEDIKVMNDLVDKIIADRKARGEQSDDLLTQMLNGKDPETGEPLDDGNIRYQIITFLIAGHEATSGLLSFALYFLVKNPHVLQKVAEEAARVLVDPVPSYKQVKQLKYVGMVLNEALRLWPTAPAFSLYAKEDTVLGGEYPLEKGDEVMVLIPQLHRDKTVWGDDVEEFRPERFENPSAIPQHAFKPFGNGQRACIGQQFALHEATLVLGMMLKHFDFEDHTNYELDIKETLTLKPKGFVVKAKSKKIPLGGIPSPSTEQSAKKVRKKAENAHNTPLLVLYGSNMGTAEGTARDLADIAMSKGFAPQVATLDSHAGNLPREGAVLIVTASYNGHPPDNAKQFVDWLDQASADEVKGVRYSVFGCGDKNWATTYQKVPAFIDETLAAKGAENIADRGEADASDDFEGTYEEWREHMWSDVAAYFNLDIENSEDNKSTLSLQFVDSAADMPLAKMHGAFSTNVVASKELQQPGSARSTRHLEIELPKEASYQEGDHLGVIPRNYEGIVNRVTARFGLDASQQIRLEAEEEKLAHLPLAKTVSVEELLQYVELQDPVTRTQLRAMAAKTVCPPHKVELEALLEKQAYKEQVLAKRLTMLELLEKYPACEMKFSEFIALLPSIRPRYYSISSSPRVDEKQASITVSVVSGEAWSGYGEYKGIASNYLAELQEGDTITCFISTPQSEFTLPKDPETPLIMVGPGTGVAPFRGFVQARKQLKEQGQSLGEAHLYFGCRSPHEDYLYQEELENAQSEGIITLHTAFSRMPNQPKTYVQHVMEQDGKKLIELLDQGAHFYICGDGSQMAPAVEATLMKSYADVHQVSEADARLWLQQLEEKGRYAKDVWAG
modifications: cytochrome P450NADPH-P-450 reductase precursor, cytochrome P450 (BM3), CYP102A1
notes: 9-10A TS + F87V, L75A, L181A, T268A
- TTn [1]: 238
- % Yield ([1]; product 4.3): 24%
- ee (cis) ([2]; (R,S)-(S,R), chiral β-CDX GC): −94
- de ([2]; diastereomeric excess = ([cis] − [trans])/([cis] + [trans])): −8
- Absolute activity ([2]; sum of the area of the cyclopropane peaks over the area of the internal standard): 0.06642
